Measurements from US6541002B1, “Compositions and methods for providing a protein to a virion” (Thomas Jefferson University, priority 1998, dated 2003).

B1: WF-CAT (protein)
chain: MQPWWAFFGGGSSWWSFSMGPTRMEKKITGYTTVDISQWHRKEHFEAFQSVAQCTYNQTVQLDITAFLKTVKKNKHKFYPAFIHILARLMNAHPEFRMAMKDGELVIWDSVHPCYTVFHEQTETFSSLWSEYHDDFRQFLHIYSQDVACYGENLAYFPKGFIENMFFVSANPWVSFTSFDLNVANMDNFFAPVFTMGKYYTQGDKVLMPLAIQVHHAVCDGFHVGRMLNELQQYCDEWQGGA
B2: CAT: chloramphenicol acetyltransferase, a protein which does not normally comprise a Vpr-binding region (protein)
chain: MEKKITGYTTVDISQWHRKEHFEAFQSVAQCTYNQTVQLDITAFLKTVKKNKHKFYPAFIHILARLMNAHPEFRMAMKDGELVIWDSVHPCYTVFHEQTETFSSLWSEYHDDFRQFLHIYSQDVACYGENLAYFPKGFIENMFFVSANPWVSFTSFDLNVANMDNFFAPVFTMGKYYTQGDKVLMPLAIQVHHAVCDGFHVGRMLNELQQYCDEWQGGA
B3: dWF-IN: dWF peptide (SEQ ID NO: 1) fused at its carboxyl terminus to the amino terminus of HIV-1 IN (protein)
chain: MQPWWAFFGGGSSWWSFSMGPTRFLDGIDKAQEEHEKYHSNWRAMASDFNLPPVVAKEIVASCDKCQLKGEAMHGQVDCSPGIWQLDCTHLEGKVILVAVHVASGYIEAEVIPAETGQETAYFLLKLAGRWPVKTVHTDNGSNFTSTTVKAACWWAGIKQEFGIPYNPQSQGVIESMNKELKKIIGQVRDQAEHLKTAVQMAVFIHNFKRKGGIGGYSAGERIVDIIATDIQTKELQKQITKIQNFRVYYRDSRDPVWKGPAKLLWKGEGAVVIQDNSDIKVVPRRKAKIIRDYGKQMAGDDCVASRQDED
B4: dWF-PR-IN: dWF peptide (SEQ ID NO: 1) fused to the HIV-1 protease cleavage site (PR), which is fused to the amino terminus of IN (protein)
chain: B3 chain
modifications: left off: small tags and cut ends

Legend:
HIV-1 virions [1] = test: CAT activity assay of HIV-1 virions from co-transfected 293T cells (incorporation into virions); format: cell-based
Protocol: About 10^6 293T cells were grown in dishes having a diameter of 10 centimeters. These cells were co-transfected with 10 micrograms of either plasmid pNL4-3 or plasmid pNL4-3DVpr, and with 10 micrograms of a plasmid selected from the group consisting of plasmid pSLXCMV-CAT, plasmid pSLXCMV-VPR-CAT, and plasmid pSLXCMV-dWF-CAT. After transfection, the cells were incubated in medium for about seven hours. The medium was then removed and replaced with fresh medium, and cells and medium were collected about forty-eight hours after the medium was replaced. At that time, the medium comprised virus produced by the cells. The amount of virus present in the medium was determined by assessing the amount of HIV-1 p24 antigen in the medium, using a p24 ELISA kit obtained from Dupont (Wilmington, Del.).
CAT activity assays were performed as described (Refaeli et al., 1995, Proc. Natl. Acad. Sci. USA 92:3621-3625). Briefly, about 10^6 transfected cells were harvested by centrifugation. Pelleted cells were lysed in 0.9 milliliter of CAT lysis buffer (Promega Corp., Madison, Wis.) to yield a crude extract. 50 microliters of crude extract was used in CAT assays, and the results of the assays were normalized to account for variation in the protein content of the various crude extracts which were made.
Virions obtained from the medium in which transfected 293T cells were grown were concentrated by ultracentrifuging the medium in a Sorval A-621 rotor for about three hours at 20,000 rotations per minute. […] The amount of HIV-1 p24 antigen in each fraction was assessed, and fractions containing the greatest amounts of p24 were selected. […] CAT activity was assessed in lysed virion preparations.
CAT activity was assessed by thin-layer chromatographic separation of ^14C-chloramphenicol from its acetylated derivatives. Radioactivity was quantitated by standard liquid scintillation methods. […]

[2] = tested on: IN-Defective HIV-1 Particles; test: Syncytia formation assay with IN-defective HIV-1 particles complemented with IN chimeras; format: cell-based
Excerpt: Using the calcium phosphate method for delivery of DNA into cells (Profection™, Promega Corp., Madison, Wis.), cells of human kidney carcinoma cell line 293T were transfected using HIV-1 proviral clones or co-transfected with these templates and SLX-CMV-VPR-IN, SLX-CMV-VPR-PR-IN, SLX-CMV-WF-IN, or SLX-CMV-dWF-PR-IN. Three days post-transfection, cell supernatants containing virus were harvested and clarified by low-speed centrifugation. HeLa-CD4-LTR/β-gal cells grown in either 60×14 or 35×10 millimeter plates were infected in duplicate at about 10-15% confluence using various viral stocks. Addition of supernatant to these MAGI reporter cells was adjusted, based upon HIV-1 p24 antigen content as quantitated by ELISA analysis (Kimpton et al., 1992, J. Virol. 66:2232-2239). MAGI cells contain an integrated cassette comprising the β-galactoside gene (β-gal) under the control of the HIV-1 long terminal repeat, and therefore can be stained for β-galactosidase activity (typically 48-72 hours post-infection).
Infected cells were fixed in a solution comprising 0.2% (v/v) glutaraldehyde and 1% (v/v) formaldehyde for 5 minutes at room temperature. Following fixation, cells were washed with phosphate buffered saline and stained using bromo-4-chloro-3-indolyl-β-D-galactopyranoside for 2 hours at 37° C. Representative fields of stained cells were photographed and numbers of deeply stained syncytia were determined either by visual counting through a microscope or from series of photographs taken in various fields of the stained cells using an Olympus CK2 microscope.
IN activity was detected using the syncytia formation assay described in this Example.

HIV-1 virions [3] = test: Western blotting analyses of complemented HIV-1 virions; conditions: integration-competent progeny virions
Protocol: 293T cells were grown in duplicate 100×20 millimeter culture dishes and transfected as described in the previous section. Virions released into the cell culture medium 2 ½ to 3 days post-transfection were centrifuged at 2000 rpm for 5 minutes at 4° C. to remove cellular debris. Afterward, virions were concentrated by adding 10 milliliters of cell medium atop 2 milliliters of buffered, isotonic 20% (w/v) sucrose, and ultracentrifuging the cushioned medium at 40,000 rpm for 2 hours. The bulk of the solution was removed by careful pipetting, and pelleted virions (visible as slight white pellets) were removed from the bottom of the ultracentrifuge tubes by resuspension in residual medium, typically resulting in a volume of 60 to 100 microliters of concentrated virus particles.
Particles were loaded into 10-20% (w/v) Tris-HCl or Tris-tricine precast gradient gels (Bio-Rad Laboratories, Richmond, Calif.) and electrophoresed until the bromphenyl blue marker migrated to at least the bottom of the gel. […] IN or IN chimera proteins were detected using a rabbit anti-IN polyclonal serum and visualized by chemiluminescence development (NEN Life Science Products) of bound HRP-conjugated anti-rabbit 1gG antisera used at 1/1500 dilution (Sigma Chemical Co., St. Louis, Mo.).

[4] = virions from 293T cells co-transfected with pNL4-3 (Vpr expressed)
[5] = HIV-1 provirus template D116N (Table 4)
[6] = HIV-1 provirus template D116N, average of duplicate experiments (Table 4)
[7] = HIV-1 provirus template IN (1-4) (Table 5)
[8] = HIV-1 provirus template IN (1-234) (Table 5)

Molecule	CAT activity of virions (conversion of chloramphenicol to an acetylated product) (HIV-1 virions [1]; [4]) [% conversion]	CAT activity of virions (conversion of chloramphenicol to an acetylated product) (HIV-1 virions [1]; virions from 293T cells co-transfected with pNL4-3DVpr (Vpr not expressed)) [% conversion]	% of Wild Type (syncytia) [2, 5] [%]	Number of Syncytia Formed [2, 6]	Number of Syncytia Formed [2, 7]	Number of Syncytia Formed [2, 8]	amount of fusion protein incorporated into progeny virions (HIV-1 virions [3])	% of Wild Type (syncytia) ([2]; HIV-1 provirus template IN (1-234) (Table 4)) [%]	Number of Syncytia Formed ([2]; HIV-1 provirus template IN (1-234), average of duplicate experiments (Table 4))
B1	28	8	–	–	–	–	–	–	–
B2	8	–	–	–	–	–	–	–	–
B3	–	–	20.8	42	10	14	equal to the amount of IN(D116N) protein incorporated into progeny virions	–	–
B4	–	–	25.7	52	18	20	–	21.7	44
